The values below come from patent US20160068592A1 (SEOUL NATIONAL UNIVERSITY R AND DB FOUNDATION, published 2016).

For experiment [1], the target named is T1, Fc fusion protein having an MG4 domain (human, UniProt P01031 350-469).
T1 construct: Amplified with MG4_F/MG4_R and cloned by SfiI into modified pCEP4; also called hMG4; MG4 domain of the C5 beta chain as Fc fusion protein; not shown: hinge region and CH2-CH3 domain of human IgG1, 3' of the cloning site
Briefly: immunoblot of beta-chain domain Fc fusion proteins.

Experiment [2] deals with T2, MG4 domain mutant d332-348 Fc fusion protein (human, UniProt P01031 367-469).
T2 construct: not shown: hinge region and CH2-CH3 domain of human IgG1
The experiment can be described thus: immunoblot after SDS-PAGE. An excerpt:
(§1) MG4 domain of the beta chain and five mutants from which the MG4 domain is sequentially removed from N-terminus of the MG4 domain were cloned. The primers were designed to add SfiI restriction sites at both the 5′ and 3′ ends (Table 13). The amplified PCR fragments were digested with SfiI and cloned into modified pCEP4 vector containing the hinge region and CH2-CH3 domain of human IgG1 at the 3′ region of the cloning site. These clones were transfected and Fc fusion proteins were purified as described in Example 5. The purified Fc fusion proteins were subjected to SDS-PAGE, and immunoblotting was performed as described above.

In experiment [3] the target is T3, MG4 domain mutant d332-378 Fc fusion protein (human, UniProt P01031 397-469).
T3 construct: not shown: hinge region and CH2-CH3 domain of human IgG1
Briefly: immunoblot after SDS-PAGE.
From the text: as §1

In experiment [4] the target is T4, MG4 domain mutant d332-396 Fc fusion protein (human, UniProt P01031 415-469).
T4 construct: not shown: hinge region and CH2-CH3 domain of human IgG1
Briefly: immunoblot after SDS-PAGE.
From the text: as §1

Experiment [5] has as its target T5, beta chain of human C5 protein (human, UniProt P01031 19-673).
T5 construct: Seen as the beta-chain band of C5 on SDS-PAGE under reducing condition; also called C5 beta-chain
Briefly: immunoblot, SDS-PAGE under reducing condition.

B1: HRA-06-H2-1 (antibody, human IgG2, kappa, V domains shown)
VH: EVQLVESGGGLVQPGGSLRLSCAASGFSFSGRYWIQWVRQAPGKGLEWVASVWPGITGDTNYANWAKGRFTISRDDSKNTLYLQMNSLRAEDTAVYYCAREPVAWGGGLDLWGQGTLVTVSS
VL: DIQMTQSPSSLSASVGDRVTITCQASQSINNQLSWYQQKPGKAPKLLIYYASTLASGVPSRFSGSGSGTDFTLTISSLQPEDFATYYCQGSYYSGGWDYGFGQGTKVEIKR
notes: also called anti-complement C5 antibody HRA-06-H2-1; C5 Antibody (HRA-06-H2-1)
As to B1, the binding result in experiment [1] is recorded as “binds”; in experiment [2], “no binding”; in experiment [3], “no binding”; in experiment [4] it was “no binding”; in experiment [5], “binds”.
